Patent US10538591B2, “Anti-fibulin-3 antibodies and uses thereof” (THE BRIGHAM AND WOMEN'S HOSPITAL, INC., priority 2014, dated 2020)
Where “and” joins values, the source holds several entries; their conditions need not be identical. Equal values may be shown once. Entries after “also recorded” stand apart in the source; their conditions may differ.

Tests used:
[1] = Acute toxicity, single IV injection dose-escalation; format: in vivo, athymic mice; parameters: Endpoint weight / Endpoint weight Average: unit not given here; Pre-inject weight / Pre-inject weight Average: unit: g; conditions: for Endpoint weight Average / Pre-inject weight Average: group average; for Endpoint weight / Pre-inject weight: individual mouse
Description: Table 2 summarizes the results of acute toxicity assays for mAb428.2 injected intravenously (IV) into mice. A dose-escalation study was performed with athymic mice that received a single IV injection of mAb428.2 (purified in low-endotoxin conditions). Doses ranged from 0.1 to 30 mg/kg and mice were observed (and weighed) for periods ranging from 15 minutes to 14 days after injection. Mice were perfused with 4% paraformaldehyde and several organs were recovered, processed for histochemistry and analyzed by a specialist in rodent histopathology. Note that recovered organs and tissues for FFPE+H&E processing were: cerebrum, cerebellum, eyes, liver, kidney, skin, forepaws (to assess connective tissue). This study was performed independently at the Beth Israel Deaconess Medical Center Preclinical Murine Pharmacogenomics Core and tissues were evaluated at the Dana-Farber/Harvard Cancer Center Rodent Histopathology Core.

[2] = molecular target: T1, fibulin-3 in human primary glioblastoma (Homo sapiens, UniProt Q12805); assay: Immunohistochemistry of human primary glioblastoma sections; conditions: anti-Fib3/911 10 μg/ml, mAb428.3C11 40 μg/ml, mAb3-5 5 μg/ml
T1 construct: specificity of mAb428.3C11 to detect native fibulin-3 in tumor tissue; from tissue; host or cells: frozen sections of human primary glioblastoma
T1 sequence (Q12805 18-493): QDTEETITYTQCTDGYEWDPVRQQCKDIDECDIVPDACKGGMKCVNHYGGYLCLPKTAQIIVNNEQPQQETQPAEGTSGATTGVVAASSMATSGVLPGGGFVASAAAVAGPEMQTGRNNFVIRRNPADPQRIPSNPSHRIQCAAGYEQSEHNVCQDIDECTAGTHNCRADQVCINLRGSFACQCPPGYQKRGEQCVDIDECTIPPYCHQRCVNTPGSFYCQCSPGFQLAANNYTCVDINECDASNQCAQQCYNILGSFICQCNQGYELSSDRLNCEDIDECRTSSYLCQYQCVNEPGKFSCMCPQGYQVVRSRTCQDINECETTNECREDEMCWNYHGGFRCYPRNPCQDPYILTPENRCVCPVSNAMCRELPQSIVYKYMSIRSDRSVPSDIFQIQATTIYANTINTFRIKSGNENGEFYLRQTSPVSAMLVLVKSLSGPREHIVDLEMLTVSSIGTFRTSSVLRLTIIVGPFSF
Description: Frozen sections of human primary glioblastoma and normal adult human brain were fixed in ethanol/acetate buffer and processed for immunohistochemistry with the following anti-fibulin-3 antibodies: rabbit polyclonal anti-Fib3/911 (10 μg/ml), mouse monoclonal anti-fibulin-3 mAb428.3C11 (40 μg/ml), and a commercial mouse monoclonal antibody against human fibulin-3 (mAb3-5, 5 μg/ml, Santa Cruz Biotechnology). […] Both in-house generated antibodies show stronger staining in the tumor parenchyma compared to the commercial antibody. In all cases, staining is particularly intense around tumor blood vessels. […] Sections were counterstained to identify endothelial markers and cell nuclei by staining with anti-CD31 and DAPI respectively. (Data not shown).
Specific and striking fibrillar staining patterns of fibulin-3 were observed around tumor blood vessels (magnification: 40×). […] Endothelial cells were stained with anti-CD31 and cell nuclei with the dye DAPI. (Data not shown).

[3] = 0.1 mg/kg IV, 15 min after injection
[4] = 0.1 mg/kg IV, 24 h after injection
[5] = 0.1 mg/kg IV, 4 days after injection
[6] = 0.1 mg/kg IV, 14 days after injection
[7] = 1 mg/kg IV, 15 min after injection
[8] = 1 mg/kg IV, 24 h after injection
[9] = 1 mg/kg IV, 4 days after injection
[10] = 1 mg/kg IV, 14 days after injection
[11] = 10 mg/kg IV, 15 min after injection
[12] = 10 mg/kg IV, 24 h after injection
[13] = 10 mg/kg IV, 4 days after injection
[14] = 10 mg/kg IV, 14 days after injection
[15] = 30 mg/kg IV, 24 h after injection
[16] = 30 mg/kg IV, 4 days after injection
[17] = 30 mg/kg IV, 14 days after injection
[18] = single IV injection 0.1 to 30 mg/kg, 15 minutes to 14 days

B1: mAb428.2: mouse monoclonal IgG1 kappa antibody against human fibulin-3 peptide SEQ ID NO:2; VH SEQ ID NO: 3, VL SEQ ID NO: 4 (antibody, V domains shown)
VH: QIQLVQSGPELKKPGETVKISCKASGYSFTTYGMSWVKQAPGKGLKWMGWINTYSGVPTYADDFKGRFAFFLETSASTAYLQINNLKNEDTATYFCARWVDYWGQGTTLTVSS
VL: DIKMTQSPSSMYASLGERVTITCKASQDIKSYLSWHQQKPWKSPKTLIYYATSLADGVPSRFSGSGSGQDYSLTISSLESDDTATYYCLQHGKSPYTFGGGTKLEIK
[1]; [3]
  Endpoint weight Average: 24.27
  Endpoint weight: 24.80 and 25.60 and 22.40
[1]; [4]
  Endpoint weight Average: 25.27
  Endpoint weight: 25.40 and 26.50 and 23.90
[1]; [5]
  Endpoint weight Average: 24.53
  Endpoint weight: 25.20 and 24.00 and 24.40
[1]; [6]
  Endpoint weight Average: 23.93
  Endpoint weight: 25.20 and 24.90 and 21.70
[1]; 0.1 mg/kg IV, endpoint 15 min
  Pre-inject weight Average: 23.95
[1]; 0.1 mg/kg IV, endpoint 15 min, measured the day before injection
  Pre-inject weight: 21.60 and 26.30 and 19.7 (*)
[1]; 0.1 mg/kg IV, endpoint 24 h
  Pre-inject weight Average: 24.93
  Pre-inject weight: 25.10 and 26.30 and 23.40
[1]; 0.1 mg/kg IV, endpoint 4 days
  Pre-inject weight Average: 24.93
  Pre-inject weight: 25.10 and 24.80 and 24.90
[1]; 0.1 mg/kg IV, endpoint 14 days
  Pre-inject weight Average: 22.40
  Pre-inject weight: 24.10 and 24.70 and 18.40
[1]; [7]
  Endpoint weight Average: 24.40
  Endpoint weight: 25.20 and 24.00 (2×)
[1]; [8]
  Endpoint weight Average: 26.30
  Endpoint weight: 25.80 and 26.30 and 26.80
[1]; [9]
  Endpoint weight Average: 23.93
  Endpoint weight: 25.00 and 22.80 and 24.00
[1]; [10]
  Endpoint weight Average: 24.37
  Endpoint weight: 24.60 and 24.00 and 24.50
[1]; 1 mg/kg IV, endpoint 15 min
  Pre-inject weight Average: 24.77
[1]; 1 mg/kg IV, endpoint 15 min, measured the day before injection
  Pre-inject weight: 25.30 and 24.60 and 24.40
[1]; 1 mg/kg IV, endpoint 24 h
  Pre-inject weight Average: 26.13
  Pre-inject weight: 25.80 and 25.90 and 26.70
[1]; 1 mg/kg IV, endpoint 4 days
  Pre-inject weight Average: 24.23
  Pre-inject weight: 25.30 and 22.80 and 24.60
[1]; 1 mg/kg IV, endpoint 14 days
  Pre-inject weight Average: 24.30
  Pre-inject weight: 24.60 and 23.80 and 24.50
[1]; [11]
  Endpoint weight Average: 23.60
  Endpoint weight: 23.50 and 22.90 and 24.40
[1]; [12]
  Endpoint weight Average: 26.47
  Endpoint weight: 26.30 and 25.60 and 27.50
[1]; [13]
  Endpoint weight Average: 24.00
  Endpoint weight: 24.70 and 23.60 and 23.70
[1]; [14]
  Endpoint weight Average: 25.30
  Endpoint weight: 25.10 and 24.80 and 26.00
[1]; 10 mg/kg IV, endpoint 15 min
  Pre-inject weight Average: 23.60
[1]; 10 mg/kg IV, endpoint 15 min, measured the day before injection
  Pre-inject weight: 23.60 and 23.20 and 24.00
[1]; 10 mg/kg IV, endpoint 24 h
  Pre-inject weight Average: 26.00
  Pre-inject weight: 26.20 and 25.00 and 26.80
[1]; 10 mg/kg IV, endpoint 4 days
  Pre-inject weight Average: 24.03
  Pre-inject weight: 24.70 and 24.00 and 23.40
[1]; 10 mg/kg IV, endpoint 14 days
  Pre-inject weight Average: 24.90
  Pre-inject weight: 24.60 and 24.40 and 25.70
[1]; [15]
  Endpoint weight Average: 26.40
  Endpoint weight: 27.40 and 26.30 and 25.50
[1]; [16]
  Endpoint weight Average: 24.70
  Endpoint weight: 25.20 and 26.30 and 22.60
[1]; [17]
  Endpoint weight Average: 23.70
  Endpoint weight: 25.50 and 23.70 and 21.90
[1]; 30 mg/kg IV, endpoint 24 h
  Pre-inject weight Average: 26.20
  Pre-inject weight: 27.40 and 26.10 and 25.10
[1]; 30 mg/kg IV, endpoint 4 days
  Pre-inject weight Average: 23.73
  Pre-inject weight: 24.00 and 25.30 and 21.90
[1]; 30 mg/kg IV, endpoint 14 days
  Pre-inject weight Average: 22.90
  Pre-inject weight: 24.20 and 23.20 and 21.30
[1]; single IV injection
  maximum tolerated dose before causing toxicity (MTD): > 30 mg/kg
[1]; single IV injection 0.1 to 30 mg/kg
  histopathology in tissues stained by H&E: no evidence of histopathology
[1]; [18]
  adverse effects: no adverse effects after injection
  weight loss: no weight loss
[2]
  fibulin-3 staining in glioblastoma tissue: detected fibulin-3 in the stroma and capillaries of human GBM
[2]; listed as mAb428.3C11
  fibulin-3 staining in glioblastoma tissue: Specific staining of fibulin-3 in tumor tissue; also recorded: detected the same fibrillar pattern observed with a commercial anti-fibulin-3 antibody
